Test results published in patent US11325966.

Key:
Test in all cases: cell-based or functional assay
[1] = target: HIV-1 envelope (Env) of pseudovirus HIV-0013095-2.11 (HIV-1)
[2] = target: HIV-1 envelope (Env) of pseudovirus MS208.A1 (HIV-1)
[3] = target: HIV-1 envelope (Env) of pseudovirus CAAN5342.A2 (HIV-1)
[4] = target: HIV-1 envelope (Env) of pseudovirus YU2_WT (HIV-1) (UniProt P35961)
[5] = target: HIV-1 envelope (Env) of pseudovirus BJOX009000.02.4 (HIV-1)
[6] = target: HIV-1 envelope (Env) of pseudovirus 0815.v3.c3 (HIV-1)
[7] = target: HIV-1 envelope (Env) of pseudovirus C3347.c11 (HIV-1)
[8] = target: HIV-1 envelope (Env) of pseudovirus CNE30 (HIV-1)
[9] = target: HIV-1 envelope (Env) of pseudovirus Ce703010054_2A2 (HIV-1)
[10] = target: HIV-1 envelope (Env) of pseudovirus SC422661.8 (HIV-1)
[11] = target: HIV-1 envelope (Env) of pseudovirus Q23.17 (HIV-1)
[12] = target: HIV-1 envelope (Env) of pseudovirus BJOX015000.11.5 (HIV-1)
[13] = target: HIV-1 envelope (Env) of pseudovirus Ce704809221_1B3 (HIV-1)
[14] = target: HIV-1 envelope (Env) of pseudovirus 6540.v4.c1 (HIV-1)
[15] = target: HIV-1 envelope (Env) of pseudovirus Q461.e2 (HIV-1)
[16] = target: HIV-1 envelope (Env) of pseudovirus T250-4 (HIV-1)
[17] = target: HIV-1 envelope (Env) of pseudovirus HIV-001428-2.42 (HIV-1)
[18] = target: HIV-1 envelope (Env) of pseudovirus 620345.c01 (HIV-1)
[19] = target: HIV-1 envelope (Env) of pseudovirus Ce1086_B2 (HIV-1)
[20] = target: HIV-1 envelope (Env) of pseudovirus CNE53 (HIV-1)
[21] = target: HIV-1 envelope (Env) of pseudovirus C2101.c01 (HIV-1)
[22] = target: HIV-1 envelope (Env) of pseudovirus BJOX025000.01.1 (HIV-1)
[23] = target: HIV-1 envelope (Env) of pseudovirus RHPA4259.7 (HIV-1)
[24] = target: HIV-1 envelope (Env) of pseudovirus YU2_N332K (HIV-1) (UniProt P35961)
[25] = target: HIV-1 envelope (Env) of pseudovirus BG505/T332N (HIV-1)
[26] = target: HIV-1 envelope (Env) of pseudovirus BF1266.431a (HIV-1)
[27] = target: HIV-1 envelope (Env) of pseudovirus 1012_11_TC21_3257 (HIV-1)
[28] = target: HIV-1 envelope (Env) of pseudovirus WEAU_d15_410_787 (HIV-1)
[29] = target: HIV-1 envelope (Env) of pseudovirus HIV-16055-2.3 (HIV-1)
[30] = target: HIV-1 envelope (Env) of pseudovirus 235-47 (HIV-1)
[31] = target: HIV-1 envelope (Env) of pseudovirus TRO.11 (HIV-1)
[32] = target: HIV-1 envelope (Env) of pseudovirus T278-50 (HIV-1)
[33] = target: HIV-1 envelope (Env) of pseudovirus 6041.v3.c23 (HIV-1)
[34] = target: HIV-1 Env of pseudovirus 7030102001E5 (Rev-) (HIV-1)
[35] = target: HIV-1 Env of pseudovirus ZM247v1 (Rev-) (HIV-1)
[36] = target: HIV-1 YU2 Env N280Y, on pseudovirus (HIV-1) (UniProt P35961)
[37] = target: HIV-1 Env of pseudovirus C3347.H1 (HIV-1)

BG1 (antibody)
IC50 in TZM-bl assay [1]: > 30 µg/mL
IC80 in TZM-bl assay [1]: > 30 µg/mL
IC50 in TZM-bl assay [2]: 1.48 µg/mL
IC80 in TZM-bl assay [2]: 6.54 µg/mL
IC50 in TZM-bl assay [3]: > 30 µg/mL
IC80 in TZM-bl assay [3]: > 30 µg/mL
IC50 in TZM-bl assay [4]: 15.8 µg/mL
IC80 in TZM-bl assay [4]: > 30 µg/mL
IC50 in TZM-bl assay [5]: > 30 µg/mL
IC80 in TZM-bl assay [5]: > 30 µg/mL
IC50 in TZM-bl assay [6]: > 30 µg/mL
IC80 in TZM-bl assay [6]: > 30 µg/mL
IC50 in TZM-bl assay [7]: > 30 µg/mL
IC80 in TZM-bl assay [7]: > 30 µg/mL
IC50 in TZM-bl assay [8]: > 30 µg/mL
IC80 in TZM-bl assay [8]: > 30 µg/mL
IC50 in TZM-bl assay [9]: > 30 µg/mL
IC80 in TZM-bl assay [9]: > 30 µg/mL
IC50 in TZM-bl assay [10]: > 30 µg/mL
IC80 in TZM-bl assay [10]: > 30 µg/mL
IC50 in TZM-bl assay [11]: 0.008 µg/mL
IC80 in TZM-bl assay [11]: 0.016 µg/mL
IC50 in TZM-bl assay [12]: > 30 µg/mL
IC80 in TZM-bl assay [12]: > 30 µg/mL
IC50 in TZM-bl assay [13]: 3.25 µg/mL
IC80 in TZM-bl assay [13]: 18.5 µg/mL
IC50 in TZM-bl assay [14]: > 30 µg/mL
IC80 in TZM-bl assay [14]: > 30 µg/mL
IC50 in TZM-bl assay [15]: > 30 µg/mL
IC80 in TZM-bl assay [15]: > 30 µg/mL
IC50 in TZM-bl assay [16]: 3.92 µg/mL
IC80 in TZM-bl assay [16]: > 30 µg/mL
IC50 in TZM-bl assay [17]: 1.09 µg/mL
IC80 in TZM-bl assay [17]: 3.12 µg/mL
IC50 in TZM-bl assay [18]: 0.626 µg/mL
IC80 in TZM-bl assay [18]: 4.23 µg/mL
IC50 in TZM-bl assay [19]: > 30 µg/mL
IC80 in TZM-bl assay [19]: > 30 µg/mL
IC50 in TZM-bl assay [20]: 1.32 µg/mL
IC80 in TZM-bl assay [20]: 7.47 µg/mL
IC50 in TZM-bl assay [21]: > 30 µg/mL
IC80 in TZM-bl assay [21]: > 30 µg/mL
IC50 in TZM-bl assay [22]: > 30 µg/mL
IC80 in TZM-bl assay [22]: > 30 µg/mL
IC50 in TZM-bl assay [23]: > 30 µg/mL
IC80 in TZM-bl assay [23]: > 30 µg/mL
IC50 in TZM-bl assay [24]: 19.4 µg/mL
IC80 in TZM-bl assay [24]: > 30 µg/mL
IC50 in TZM-bl assay [25]: 0.034 µg/mL
IC80 in TZM-bl assay [25]: 0.125 µg/mL
IC50 in TZM-bl assay [26]: > 30 µg/mL
IC80 in TZM-bl assay [26]: > 30 µg/mL
IC50 in TZM-bl assay [27]: > 30 µg/mL
IC80 in TZM-bl assay [27]: > 30 µg/mL
IC50 in TZM-bl assay [28]: > 30 µg/mL
IC80 in TZM-bl assay [28]: > 30 µg/mL
IC50 in TZM-bl assay [29]: 4.3 µg/mL
IC80 in TZM-bl assay [29]: 16.9 µg/mL
IC50 in TZM-bl assay [30]: 1.27 µg/mL
IC80 in TZM-bl assay [30]: 4.38 µg/mL
IC50 in TZM-bl assay [31]: > 30 µg/mL
IC80 in TZM-bl assay [31]: > 30 µg/mL
IC50 in TZM-bl assay [32]: 19.3 µg/mL
IC80 in TZM-bl assay [32]: > 30 µg/mL
IC50 in TZM-bl assay [33]: 6.75 µg/mL
IC80 in TZM-bl assay [33]: 16.6 µg/mL

BG18 IgG (354BG18) (antibody)
IC50 in TZM-bl assay [34]: 0.002 µg/mL
IC80 in TZM-bl assay [34]: 0.008 µg/mL
IC50 in TZM-bl assay [35]: 1.45 µg/mL
IC80 in TZM-bl assay [35]: 8.72 µg/mL
IC50 in TZM-bl assay [36]: 0.005 µg/mL
IC80 in TZM-bl assay [36]: 0.016 µg/mL

PGT121 (antibody)
IC50 in TZM-bl assay [37]: > 10 µg/mL
IC80 in TZM-bl assay [37]: > 10 µg/mL
